Target: T1, WaaL from Cupriavidus metallidurans (CmWaaL) in MSP1E3D1 nanodiscs, as used for ELISA (Cupriavidus metallidurans CH34)
T1 chain: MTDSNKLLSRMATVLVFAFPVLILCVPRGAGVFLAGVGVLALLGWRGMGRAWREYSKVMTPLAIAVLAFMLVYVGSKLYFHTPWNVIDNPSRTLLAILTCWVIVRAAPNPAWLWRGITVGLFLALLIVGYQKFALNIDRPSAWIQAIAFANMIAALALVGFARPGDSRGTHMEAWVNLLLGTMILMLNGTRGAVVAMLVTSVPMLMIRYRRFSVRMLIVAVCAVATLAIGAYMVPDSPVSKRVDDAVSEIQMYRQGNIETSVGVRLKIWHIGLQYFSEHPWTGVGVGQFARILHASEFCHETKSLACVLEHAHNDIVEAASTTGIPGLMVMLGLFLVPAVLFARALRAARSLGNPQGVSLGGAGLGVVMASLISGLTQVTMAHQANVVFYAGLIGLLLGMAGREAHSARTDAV
Assay: ELISA

EC50: 1.87 nM
B1: WaB10 Fab (synthetic antigen binder against CmWaaL) (Fab, V domains shown)
VH: EVQLVESGGGLVQPGGSLRLSCAASGFNVYSSSIHWVRQAPGKGLEWVAYISSYYGSTYYADSVKGRFTISADTSKNTAYLQMNSLRAEDTAVYYCARIMFKWVSPNMAFDYWGQGTLVTVSS
VL: DIQMTQSPSSLSASVGDRVTITCRASQSVSSAVAWYQQKPGKAPKLLIYSASSLYSGVPSRFSGSRSGTDFTLTISSLQPEDFATYYCQQSYYSLVTFGQGTKVEIK

Source: PMC9884178 (Nature, 2022)
